Key:
[1] = molecular target: T1, F4, TNFα-derived peptide with a myristoylated lysine and fluorescein-labelled cysteine in the +2 position (UniProt P01375, myristoyl residue on the lysine side chain; 5-acetamidofluorescein coupled to a cysteine residue at position +2); assay: FP; 0 uM BSA, no NAD+
[2] = molecular target: T1, F4, TNFα-derived peptide with a …; assay: FP; 0.3 uM BSA, no NAD+
[3] = molecular target: T1, F4, TNFα-derived peptide with a …; assay: FP; 3 uM BSA, no NAD+

Kd [1]: 12.3 nM
Kd [2]: 9.4 nM
Kd [3]: 7 nM
B1: SIRT2 (enzyme)
chain: MAEPDPSHPLETQAGKVQEAQDSDSDSEGGAAGGEADMDFLRNLFSQTLSLGSQKERLLDELTLEGVARYMQSERCRRVICLVGAGISTSAGIPDFRSPSTGLYDNLEKYHLPYPEAIFEISYFKKHPEPFFALAKELYPGQFKPTICHYFMRLLKDKGLLLRCYTQNIDTLERIAGLEQEDLVEAHGTFYTSHCVSASCRHEYPLSWMKEKIFSEVTPKCEDCQSLVKPDIVFFGESLPARFFSCMQSDFLKVDLLLVMGTSLQVQPFASLISKAPLSTPRLLINKEKAGQSDPFLGMIMGLGGGMDFDSKKAYRDVAWLGECDQGCLALAELLGWKKELEDLVRREHASIDAQSGAGVPNPSTSASPKKSPPPAKDEARTTEREKPQ
